Source: article PMC11172336, “Exploring Syndecan-4 and MLP and Their Interaction in Primary Cardiomyocytes and H9c2 Cells” (Cells, 2024)
Numbering of substitutions follows the chain as printed. Where “and” joins values, the source holds several entries; their conditions need not be identical. Equal values may be shown once. Where no end group is shown, it is not given here. The star is where a group is joined. Biotin = O=C1N[C@H]2[C@H](CS[C@H]2CCCCC(=O)*)N1

B1: MLP, endogenous in adult rat primary cardiomyocytes (natural protein, UniProt P50463 1-194, looked up)
chain: MPNWGGGAKCGACDKTVYHAEEIQCNGRSFHKTCFHCMACRKALDSTTVAAHESEIYCKVCYGRKYGPKGIGFGQGAGCLSTDTGEHLGLQFQQSPKPARAATTSNPSKFSAKFGESEKCPRCGKSVYAAEKVMGGGKPWHKTCFPCAICGKSLESTNVTDKDGELYCKVCYAKNFGPTGIGFGGLTHQVEKKE
notes: Muscle LIM Protein (MLP, CSRP3), rat; source: endogenous, enriched subcellular fractions of freshly isolated adult rat LV cardiomyocytes
B2: recombinant 6xHis-MLP-WT (natural protein, human, UniProt P50461 1-194, looked up)
chain: B1 chain with D14E, K65R, F73Y, A101S, A102V, S111T, P146R, H188Q
notes: Muscle LIM Protein (MLP), encoded by CSRP3, human, 194 amino acids; on the native blot a mixture of monomer, dimer, trimer and tetramer; also called full-length recombinant 6xHis-MLP-WT protein; Muscle LIM Protein; source: bought: GenScript (recombinant protein, >80% purity); not shown: His6, N-terminal, kept
B3: recombinant 6xHis-MLP W4R (natural protein, human, UniProt P50461 1-194, looked up)
chain: B1 chain with W4R, D14E, K65R, F73Y, A101S, A102V, S111T, P146R, H188Q
notes: Muscle LIM Protein (MLP, CSRP3), human, with a patient mutation; the eight mutated recombinant proteins are named in the abstract; source: bought: GenScript (recombinant protein, >80% purity); not shown: His6, N-terminal, kept
B4: recombinant 6xHis-MLP L44P (natural protein, human, UniProt P50461 1-194, looked up)
chain: B1 chain with D14E, L44P, K65R, F73Y, A101S, A102V, S111T, P146R, H188Q
notes: Muscle LIM Protein (MLP, CSRP3), human, with a patient mutation; source: bought: GenScript (recombinant protein, >80% purity); not shown: His6, N-terminal, kept
B5: recombinant 6xHis-MLP C58G (natural protein, human, UniProt P50461 1-194, looked up)
chain: B1 chain with D14E, C58G, K65R, F73Y, A101S, A102V, S111T, P146R, H188Q
notes: as for B4
B6: recombinant 6xHis-MLP R64C (natural protein, human, UniProt P50461 1-194, looked up)
chain: B1 chain with D14E, R64C, K65R, F73Y, A101S, A102V, S111T, P146R, H188Q
notes: as for B4
B7: recombinant 6xHis-MLP Y66C (natural protein, human, UniProt P50461 1-194, looked up)
chain: B1 chain with D14E, K65R, Y66C, F73Y, A101S, A102V, S111T, P146R, H188Q
notes: as for B4
B8: recombinant 6xHis-MLP K69R (natural protein, human, UniProt P50461 1-194, looked up)
chain: B1 chain with D14E, K65R, K69R, F73Y, A101S, A102V, S111T, P146R, H188Q
notes: as for B4
B9: recombinant 6xHis-MLP G72R (natural protein, human, UniProt P50461 1-194, looked up)
chain: B1 chain with D14E, K65R, G72R, F73Y, A101S, A102V, S111T, P146R, H188Q
notes: as for B4
B10: recombinant 6xHis-MLP Q91L (natural protein, human, UniProt P50461 1-194, looked up)
chain: B1 chain with D14E, K65R, F73Y, Q91L, A101S, A102V, S111T, P146R, H188Q
notes: as for B4
B11: biotinylated MLP-WT peptide aa 50-79 (peptide, UniProt P50461 50-79, looked up)
peptide: Biotin-AAHESEIYCKVCYGRRYGPKGIGYGQGAGC
modifications: cysteine pairing not given here
notes: Muscle LIM Protein (MLP, CSRP3), human, 30-mer, residues 50-79, covering the end of LIM1 and the NLS; also called MLP peptide aa 50–79; source: synthetic peptide (GenScript, >80% purity)
B12: biotinylated MLP-WT peptide aa 125-154 (peptide)
peptide: not shown
modifications: N-terminal biotin tag
notes: source: synthetic peptide (GenScript, >80% purity)

Columns and labels:
[1] = target: the molecule itself; experiment: immunoblotting under native conditions; 20 µg of cytoplasmic-, nuclear-, membrane- and cytoskeletal-enriched fractions of adult rat cardiomyocytes in native sample buffer, not boiled, SDS-containing running buffer; blot with C-terminal anti-MLP (#R06991)
[2] = target: the molecule itself; experiment: immunoblotting under native conditions; 0.5 µg of recombinant 6xHis-MLP WT or mutated protein in native sample buffer, not boiled, SDS-containing running buffer; blot with C-terminal anti-MLP (#R06991); densitometry
[3] = target: B5; experiment: ELISA; wells coated with 10 µg of WT or mutated full-length 6xHis-MLP recombinant protein in PBS; biotinylated overlapping MLP-WT 30-mer peptides at 2–5 µM for two hours at 37 °C; signal of PBS-coated wells subtracted; details: both partners purified
recombinant 6xHis-MLP-WT = target: B2; experiment: as above; details: both partners purified
[4] = target: B4; experiment: as above; details: both partners purified

Binder: B1
- stoichiometry N [1]: 2 and 3 and 4

Binder: B2
- stoichiometry N [2]: 2 and 3 and 4

Binder: B3
- binding result [2]: binds

Binder: B4
- binding result [2]: binds

Binder: B5
- binding result [2]: binds

Binder: B6
- binding result [2]: binds

Binder: B7
- binding result [2]: binds

Binder: B8
- binding result [2]: binds

Binder: B9
- binding result [2]: binds

Binder: B10
- binding result [2]: binds

Binder: B11
- binding result [3]: binds
- binding result (recombinant 6xHis-MLP-WT): binds

Binder: B12
- binding result [3]: binds
- binding result [4]: binds
- binding result (recombinant 6xHis-MLP-WT): binds
